Source: patent US20200291096A1, “BICYCLIC PEPTIDE LIGAND STING CONJUGATES AND USES THEREOF” (priority 2017, published 2020)
Starred links: 1 amine or outer side, 2 acyl side, 3 side chain; linkers in the order of their positions; H or OH if unused. Positions of bridges follow the written chain, without caps; N, C: chain ends. Non-standard residues stand in square brackets, D forms with d. Residues, ends and D or L forms follow the SMILES beside them. *: point of attachment. X1 = CC(C)[C@H](NC(=O)Cn1cc(CCC(=O)*)nn1)C(=O)N[C@@H](CCCNC(N)=O)C(=O)Nc1ccc(COC(=O)N(C)CCN(C)C(=O)O[C@@H]2[C@@H]3OP(=O)(O)OC[C@H]4O[C@@H](n5cnc6c(N)ncnc65)[C@H](O)[C@@H]4OP(=O)(O)OC[C@H]3O[C@H]2n2cnc3c(=O)[nH]c(N)nc32)cc1; X4 = CC(C)[C@H](NC(=O)Cn1cc(CCC(=O)*)nn1)C(=O)N[C@@H](CCCNC(N)=O)C(=O)Nc1ccc(COC(=O)NCCNC(=O)O[C@@H]2[C@@H]3OP(=O)(O)OC[C@H]4O[C@@H](n5cnc6c(N)ncnc65)[C@H](O)[C@@H]4OP(=O)(O)OC[C@H]3O[C@H]2n2cnc3c(=O)[nH]c(N)nc32)cc1; X5 = Nc1nc2c(ncn2[C@@H]2O[C@@H]3COP(=O)(O)O[C@H]4[C@@H](O)[C@H](n5cnc6c(N)ncnc65)O[C@@H]4COP(=O)(O)O[C@H]3[C@H]2OC(=O)NCCSSCCCC(=O)*)c(=O)[nH]1; X2 = Nc1nc2c(ncn2[C@@H]2O[C@@H]3COP(=O)(O)O[C@H]4[C@@H](O)[C@H](n5cnc6c(N)ncnc65)O[C@@H]4COP(=O)(O)O[C@H]3[C@H]2OC(=O)*)c(=O)[nH]1; X6 = Nc1ncnc2c1ncn2[C@@H]1O[C@@H]2COP(=O)(S)O[C@H]3[C@@H](OC(=O)*)[C@H](n4cnc5c(N)ncnc54)O[C@@H]3COP(=O)(S)O[C@H]2[C@H]1F; 1Nal = N[C@@H](Cc1cccc2ccccc12)C(=O)O; TBMB = c1c(C[*:1])cc(C[*:3])cc1C[*:2]; X3 = O=C(CCc1cn(CCCN[*:1])nn1)[*:2]; Tle = CC(C)(C)[C@H](N)C(=O)O; βAla = NCCC(=O)O; Sar = CNCC(=O)O

What was measured:
in vitro [1] = conditions: human, plasma, pH 7.4
Protocol: (§1) The pooled frozen mouse, rat, monkey or human plasma is thawed in a water bath at 37° C. prior to experiment. Plasma is centrifuged at 4000 rpm for 5 min and the clots are removed if any. The pH is adjusted to 7.4±0.1 if required. 5 mM intermediate solutions of test compounds are prepared with DMSO. 1 mM intermediate solution of positive control Propantheline is prepared by diluting 5 μL of the stock solution with 45 μL ultra pure water. 1 mM intermediate solution of positive control Enalaprit is prepared by diluting 5 μL of the stock solution with 45 μL DMSO. 100 μM dosing solution is prepared by diluting 20 μL of the intermediate solution (1 mM) with 180 μL DMSO. For positive controls, 100 μM intermediate solution is prepared by diluting 20 μL of the stock solution with 180 μL 45% MeOH/H2O. […] 196 μL of blank plasma is spiked with 4 μL of dosing solution (100 μM) to achieve 2 μM of the final concentration in duplicate and samples are incubated at 37° C. in a water bath. At each time point (0, 1, 2, 4, 6 and 24 hr), 800 μL of stop solution (200 ng/mL tolbutamide, 200 ng/ML Labetalol in 50% MeOH/ACN) was added to precipitate protein and mixed thoroughly. Sample plates are centrifuged at 4,000 rpm for 10 min. An aliquot of supernatant (150 μL) is transferred from each well before submitting to LC-MS/MS analysis.
(§2) The percentage of test compound remaining at the individual time points relative to the 0 hour sample is calculated using following equation: Percent Remaining=100×(PAR at appointed incubation time/PAR at To time) where PAR is the peak area ratio of analyte versus internal standard (IS).

in vitro [2] = conditions: rat, plasma, pH 7.4
Protocol: as §1, §2

in vitro [3] = conditions: mouse, plasma, pH 7.4
Protocol: as §1, §2

Plasma stability (cyno) = assay type: in vitro ADME; conditions: cynomolgus monkey, pH 7.4, 37° C., read-out: T1/2 (cyno)
Protocol: as §1, §2

in vitro [4] = conditions: male, CD-1, mouse, whole blood
Protocol: CD-1 mouse blood (n >2,male, fasted overnight) is collected from animals housed at an internal facility. (EDTA-K2 is used as anticoagulant)
The test compounds and positive control stock solutions are prepared to 10 mM in DMSO or ultrapure water. […] The dosing solutions of test compounds and controls are prepared by diluting the stock solution with 45% MeOH/H2O to achieve 100 uM. Test compound solutions (final incubation concentration=2 μM) are incubated with blood (final DMSO concentration≤1%) at six different time points (0, 1, 2, 4, 6 and 24 hours) in duplicate (n=2). The reaction is terminated by adding 100 uL ultra-pure water, mixing well, then adding 800 uL of 100% methanol containing 200 ng/mL tolbutamide and 200 ng/mL labetalol as internal standards. Samples are then vortexed and centrifuged at 3200×g for 20 minutes. Following centrifugation, the concentration of test compound in the supernatant is determined semi-quantitatively by LC-MS/MS. The percentage of test compound remaining at the individual time points relative to the 0 hour sample is then reported. The percent remaining of test compound after incubation in blood is calculated using following equation: Percent Remaining=100×(PAR at appointed incubation time/PAR at To time) where PAR is the peak area ratio of analyte versus internal standard (IS).

[5] = 3 mg/kg IV, male CD-1 mice, plasma (FIG. 1)
Protocol: Male CD-1 mice were dosed with 3 mg/kg of Bicycle Conjugate formulated in 25 mM Histidine HCl, 10% sucrose pH 7 via tail vein injection. Serial bleeding (about 80 μL blood/time point) was performed via submadibular or saphenous vein at each time point. All blood samples were immediately transferred into prechilled microcentrifuge tubes containing 2 μL K2-EDTA (0.5M) as anti-coagulant and placed on wet ice. Blood samples were immediately processed for plasma by centrifugation at approximately +4° C., 3000 g. The precipitant including internal standard (350 uL) was immediately added into the 35 uL plasma sample, mixed well and centrifuged at 3220 g, +4° C. for 15 minutes. The supernatant was transferred into pre-labelled polypropylene microcentrifuge tubes, and then quick-frozen over dry ice. The samples were stored at −70° C. or below as needed until analysis. Supernatant samples were mixed with 50 uL water, vortexed well and centrifuged at 3220 g, +4° C. for 15 minutes. A sample of the supernatant was injected for LC-MS/MS analysis using an Acquity UPLC with AB Sciex 6500+Triple Quad MS in positive ion mode to determine the concentrations of Bicycle conjugate and released payload. Plasma concentration versus time data were analyzed by non-compartmental approaches using the Phoenix WinNonlin 6.3 software program. […]

| SMILES | half-life at 2 μM (in vitro [1]) [h] | half-life at 2 μM (in vitro [2]) [h] | half-life at 2 μM (in vitro [3]) [h] | half-life at 2 μM (Plasma stability (cyno)) [h] | half-life at 2 μM (in vitro [4]) [h] | stability in mouse blood | systemic elimination [5] |
| --- | --- | --- | --- | --- | --- | --- | --- |
| C[C@H](NC(=O)CN(C)C(=O)CN(C)C(=O)CN(C)C(=O)CN(C)C(=O)CN(C)C(=O)CN(C)C(=O)CN(C)C(=O)CN(C)C(=O)CN(C)C(=O)CN(C)C(=O)CCNC(=O)CCc1cn(CCCNC(=O)O[C@@H]2[C@@H]3OP(=O)(S)OC[C@H]4O[C@@H](n5cnc6c(N)ncnc65)[C@H](F)[C@@H]4OP(=O)(S)OC[C@H]3O[C@H]2n2cnc3c(N)ncnc32)nn1)C(=O)N[C@H]1CSCc2cc3cc(c2)CSC[C@H](NC(=O)[C@@H](C)NC(=O)[C@H](Cc2cccc4ccccc24)NC(=O)[C@H](CCC(=O)O)NC(=O)[C@H](CC(N)=O)NC(=O)[C@@H](C)NC1=O)C(=O)N[C@@H](CCC(=O)O)C(=O)N[C@@H](CC(=O)O)C(=O)N[C@@H](Cc1ccccc1)C(=O)N[C@@H](Cc1ccc(O)cc1)C(=O)N[C@@H](CC(=O)O)C(=O)N[C@@H](C(C)(C)C)C(=O)N[C@H](C(N)=O)CSC3 (stereo partly shown) [Conjugate 1 of Example 7.4] (X6-[X3][βAla][Sar][Sar][Sar][Sar][Sar][Sar][Sar][Sar][Sar][Sar]AC[dA]NE[1Nal][dA]CEDFYD[Tle]C-NH2; linker 14-20-27 via TBMB) | > 24 | > 24 | 6 to 24 | > 24 |  |  |  |
| C[C@H](NC(=O)CN(C)C(=O)CN(C)C(=O)CN(C)C(=O)CN(C)C(=O)CN(C)C(=O)CN(C)C(=O)CN(C)C(=O)CN(C)C(=O)CN(C)C(=O)CN(C)C(=O)CCNC(=O)CCCSSCCNC(=O)O[C@@H]1[C@@H]2OP(=O)(O)OC[C@H]3O[C@@H](n4cnc5c(N)ncnc54)[C@H](O)[C@@H]3OP(=O)(O)OC[C@H]2O[C@H]1n1cnc2c(=O)[nH]c(N)nc21)C(=O)N[C@H]1CSCc2cc3cc(c2)CSC[C@H](NC(=O)[C@@H](C)NC(=O)[C@H](Cc2cccc4ccccc24)NC(=O)[C@H](CCC(=O)O)NC(=O)[C@H](CC(N)=O)NC(=O)[C@@H](C)NC1=O)C(=O)N[C@@H](CCC(=O)O)C(=O)N[C@@H](CC(=O)O)C(=O)N[C@@H](Cc1ccccc1)C(=O)N[C@@H](Cc1ccc(O)cc1)C(=O)N[C@@H](CC(=O)O)C(=O)N[C@@H](C(C)(C)C)C(=O)N[C@H](C(N)=O)CSC3 [I-64] ({X5-βAla}-[Sar][Sar][Sar][Sar][Sar][Sar][Sar][Sar][Sar][Sar]AC[dA]NE[1Nal][dA]CEDFYD[Tle]C-NH2; linker 12-18-25 via TBMB) | < 2 | < 2 | < 2 | < 2 |  |  |  |
| CC(C)[C@H](NC(=O)Cn1cc(CCC(=O)NCCC(=O)N(C)CC(=O)N(C)CC(=O)N(C)CC(=O)N(C)CC(=O)N(C)CC(=O)N(C)CC(=O)N(C)CC(=O)N(C)CC(=O)N(C)CC(=O)N(C)CC(=O)N[C@@H](C)C(=O)N[C@H]2CSCc3cc4cc(c3)CSC[C@H](NC(=O)[C@@H](C)NC(=O)[C@H](Cc3cccc5ccccc35)NC(=O)[C@H](CCC(=O)O)NC(=O)[C@H](CC(N)=O)NC(=O)[C@@H](C)NC2=O)C(=O)N[C@@H](CCC(=O)O)C(=O)N[C@@H](CC(=O)O)C(=O)N[C@@H](Cc2ccccc2)C(=O)N[C@@H](Cc2ccc(O)cc2)C(=O)N[C@@H](CC(=O)O)C(=O)N[C@@H](C(C)(C)C)C(=O)N[C@H](C(N)=O)CSC4)nn1)C(=O)N[C@@H](CCCNC(N)=O)C(=O)Nc1ccc(COC(=O)NCCNC(=O)O[C@@H]2[C@@H]3OP(=O)(O)OC[C@H]4O[C@@H](n5cnc6c(N)ncnc65)[C@H](O)[C@@H]4OP(=O)(O)OC[C@H]3O[C@H]2n2cnc3c(=O)[nH]c(N)nc32)cc1 [I-65] ({X4-βAla}-[Sar][Sar][Sar][Sar][Sar][Sar][Sar][Sar][Sar][Sar]AC[dA]NE[1Nal][dA]CEDFYD[Tle]C-NH2; linker 12-18-25 via TBMB) | > 24 | > 24 | 6 to 24 | > 24 |  |  |  |
| C[C@H](NC(=O)CN(C)C(=O)CN(C)C(=O)CN(C)C(=O)CN(C)C(=O)CN(C)C(=O)CN(C)C(=O)CN(C)C(=O)CN(C)C(=O)CN(C)C(=O)CN(C)C(=O)CCNC(=O)CCc1cn(CCCNC(=O)O[C@@H]2[C@@H]3OP(=O)(O)OC[C@H]4O[C@@H](n5cnc6c(N)ncnc65)[C@H](O)[C@@H]4OP(=O)(O)OC[C@H]3O[C@H]2n2cnc3c(=O)[nH]c(N)nc32)nn1)C(=O)N[C@H]1CSCc2cc3cc(c2)CSC[C@H](NC(=O)[C@@H](C)NC(=O)[C@H](Cc2cccc4ccccc24)NC(=O)[C@H](CCC(=O)O)NC(=O)[C@H](CC(N)=O)NC(=O)[C@@H](C)NC1=O)C(=O)N[C@@H](CCC(=O)O)C(=O)N[C@@H](CC(=O)O)C(=O)N[C@@H](Cc1ccccc1)C(=O)N[C@@H](Cc1ccc(O)cc1)C(=O)N[C@@H](CC(=O)O)C(=O)N[C@@H](C(C)(C)C)C(=O)N[C@H](C(N)=O)CSC3 [I-66] (X2-[X3][βAla][Sar][Sar][Sar][Sar][Sar][Sar][Sar][Sar][Sar][Sar]AC[dA]NE[1Nal][dA]CEDFYD[Tle]C-NH2; linker 14-20-27 via TBMB) | > 24 | > 24 | > 24 | > 24 | 6 to 24 | dramatic stability |  |
| CC(C)[C@H](NC(=O)Cn1cc(CCC(=O)NCCC(=O)N(C)CC(=O)N(C)CC(=O)N(C)CC(=O)N(C)CC(=O)N(C)CC(=O)N(C)CC(=O)N(C)CC(=O)N(C)CC(=O)N(C)CC(=O)N(C)CC(=O)N[C@@H](C)C(=O)N[C@H]2CSCc3cc4cc(c3)CSC[C@H](NC(=O)[C@@H](C)NC(=O)[C@H](Cc3cccc5ccccc35)NC(=O)[C@H](CCC(=O)O)NC(=O)[C@H](CC(N)=O)NC(=O)[C@@H](C)NC2=O)C(=O)N[C@@H](CCC(=O)O)C(=O)N[C@@H](CC(=O)O)C(=O)N[C@@H](Cc2ccccc2)C(=O)N[C@@H](Cc2ccc(O)cc2)C(=O)N[C@@H](CC(=O)O)C(=O)N[C@@H](C(C)(C)C)C(=O)N[C@H](C(N)=O)CSC4)nn1)C(=O)N[C@@H](CCCNC(N)=O)C(=O)Nc1ccc(COC(=O)N(C)CCN(C)C(=O)O[C@@H]2[C@@H]3OP(=O)(O)OC[C@H]4O[C@@H](n5cnc6c(N)ncnc65)[C@H](O)[C@@H]4OP(=O)(O)OC[C@H]3O[C@H]2n2cnc3c(=O)[nH]c(N)nc32)cc1 [I-68] ({X1-βAla}-[Sar][Sar][Sar][Sar][Sar][Sar][Sar][Sar][Sar][Sar]AC[dA]NE[1Nal][dA]CEDFYD[Tle]C-NH2; linker 12-18-25 via TBMB) | > 24 | > 24 | 6 to 24 | > 24 | 2 to 6 | dramatic stability | rapid systemic elimination |
